The term Kd denotes the free concentration of one partner at which half of the binding sites on the other are occupied at equilibrium, for simple one-to-one binding.

The record followed here is patent US20230416726A1 (University of Washington, published 2023).

The target of the assay is T1, programmed cell death ligand 1 (PD-L1) (UniProt Q9NZQ7 19-239, limits assumed, biotinylated in the yeast display assays).
T1 construct: also called PD-Li
The assay can be described thus: BLI, max binding signal versus PD-L1 concentration. Background: BLI is a label-free optical method that tracks binding on a fibre tip over time.

T1 sequence (Q9NZQ7 19-239 limits assumed): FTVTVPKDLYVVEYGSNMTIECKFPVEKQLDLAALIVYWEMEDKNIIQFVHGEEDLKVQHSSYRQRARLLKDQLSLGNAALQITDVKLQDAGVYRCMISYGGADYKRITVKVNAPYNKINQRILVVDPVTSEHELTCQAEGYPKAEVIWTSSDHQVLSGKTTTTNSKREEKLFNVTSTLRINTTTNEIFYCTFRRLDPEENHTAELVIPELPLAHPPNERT

B1: pdl1_inp_1 (purified from E. coli) (designed binder)
chain: DLEEFFEECLKEAEEVRKEVLEGKARIQIKESVRKEDPEGGTYVCGVISLGPKGGKFHVVFHKEDPEGKEETLARFEFKVEGGKVELLELKSKDPELKKLAEKYAEKLLE
notes: Expressed as a monomer; Tested by BLI; not shown: C-terminal SNAC tag and 6xHis tag from the modified pET29b+ vector
Molecule B1 showed a Kd of 0.326 µM.
